Results from US9234036B2, “Modulation of activity of proneurotrophins” (H. Lundbeck A/S, priority 2006, dated 2016).
Entries after “also recorded” stand apart in the source; their conditions may differ. Where no end group is shown, it is not given here.

B1: RAP: receptor-associated protein, SEQ ID NO 12 (protein, listed as Homo Sapiens)
chain: MAPRRVRSFLRGLPALLLLLLFLGPWPAASHGGKYSREKNQPKPSPKRESGEEFRMEKLNQLWEKAQRLHLPPVRLAELHADLKIQERDELAWKKLKLDGLDEDGEKEARLIRNLNVILAKYGLDGKKDARQVTSNSLSGTQEDGLDDPRLEKLWHKAKTSGKFSGEELDKLWREFLHHKEKVHEYNVLLETLSRTEEIHENVISPSDLSDIKGSVLHSRHTELKEKLRSINQGLDRLRRVSHQGYSTEAEFEEPRVIDLWDLAQSANLTDKELEAFREELKHFEAKIEKHNHYQKQLEIAHEKLRHAESVGDGERVSRSREKHALLEGRTKELGYTVKKHLQDLSGRISRARHNEL

Experiments:
pro-dom-BDNF = target: T1, pro-dom-BDNF (Homo sapiens, UniProt P23560); test: SPOT analysis of pro-dom-BDNF binding to cellulose-bound sortilin peptides; settings: HRP-S-protein detection where stated
T1 construct: pro-dom-BDNF (residues Ala^1-Arg^110); made in house; host or cells: E. coli BL21/DE3
T1 sequence (P23560 19-128 limits assumed): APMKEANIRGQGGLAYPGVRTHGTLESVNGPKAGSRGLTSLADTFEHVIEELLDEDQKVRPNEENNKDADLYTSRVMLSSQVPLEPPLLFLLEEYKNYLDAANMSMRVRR
Description: (§1) Peptide libraries were generated for all members of the Vps10p-domain receptor gene family or specific peptide variations in terms of substitution or length of identified Sortilin binding peptides. A total of 2181 peptides was used for representation of the Sortilin gene family, corresponding to 273 peptides for Sortilin (accession code: CAA66904), 734 peptides for SorLA (accession code: NP_003096), 389 peptides for SorCS1 (accession code: NP_001013049), 382 peptides for sorCS2 (accession code: Q96PQ0), and 403 peptides for SorCS3 (accession code: CAI64579), with a 13 amino acid overlap between 16-mers.
(§2) A cellulose support is prepared as a N-modified cellulose-amino-hydroxylpropyl ether membrane, and all rounds of synthesis starts with SPOT definition by 9-fluorenyl-methoxycarbonyl-β-alanine-pentafluoophenyl ester that creates an alanine linker between peptide and membrane. Then followed an automated linear synthesis of stepwise addition of the different amino acids protected at their amino terminal by 9-fluorenyl-methoxycarbonyl and appropriate side chain protection for the growing peptide chain. The pattern of deprotection, activation, and coupling continued until 16-mer peptides were produced, resulting in an equally distributed array of covalently anchored peptides to the cellulose support at their C-terminal and an N-terminal free end.
(§3) The membrane-bound libraries were incubated with a combined S-peptide and poly-histidine-tagged pro-domains (10 ug/mL) in blocking buffer over night at 4 C, followed by a second incubation with 1 ug/mL of HRP-conjugated S-protein from Novagen (cat. no. 69047-3) also in blocking buffer but for 3 h at room temperature. Subsequently, the membrane was washed three times for 10 min with TBS before quantitative characterization of bound ligand was carried out using the UptiLight chemoluminescence substrate from Uptima (cat. no. UP99619A) and the Lumilmager instrument from Roche Diagnostics, providing the SPOT signal intensities in Boehringer Light Units (BLUs). […]

pro-dom-NGF = target: T2, pro-dom-NGF (Homo sapiens, UniProt P01138, A35V); test: SPOT analysis of pro-dom-NGF binding to cellulose-bound sortilin peptides; settings: HRP-S-protein detection where stated
T2 construct: pro-dom-NGF (residues Glu^1-Arg^102); made in house; host or cells: E. coli BL21/DE3
T2 sequence (P01138 19-121 A35V): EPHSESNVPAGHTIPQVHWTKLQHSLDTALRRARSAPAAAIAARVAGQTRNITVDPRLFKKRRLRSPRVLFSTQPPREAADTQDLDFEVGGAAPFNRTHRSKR
Description: as §1, §2, §3

GST-pro-dom-NGF = target: T3, GST-pro-dom-NGF (Homo sapiens, UniProt P01138, A35V); test: SPR binding of GST-pro-dom-NGF to immobilized sortilin site-directed mutants
T3 construct: previously described GST-NGF-pro-domain fusion protein (Nykjaer et al., Nature 2004)
T3 sequence (P01138 19-121 A35V): T2 sequence (P01138 19-121 A35V)
Description: Site-directed mutagenesis was performed for all important residues within the peptide sequence as identified by the substitution analysis in the SPOT method, using the pCepPU expression vector for sortilin as template. The thereby generated mutant constructs were used together with HEK293 cells to produce single residue mutants of the his-tagged sortilin luminal domain, to obtain the proteins R163A, F165A, R166A, F170A, K172A, and F174A numbered according to pro-Sortilin as specified in the sequence overview. As a control protein, the mutant R160A located N-terminally to the recognition sequence, was produced in order to have a protein with unaltered affinity for the NGF-prodomain.
After purification by standard Ni^2+-NTA chromatography, each sortilin mutant was immobilized to a similar surface density on Biacore CM5 chips. Binding was tested using concentration series of the previously described GST-NGF-pro-domain fusion protein (Nykjaer et al., Nature 2004), which is able to render a higher response using the SPR system at low concentration. Thus concentration series of 10, 20, 30, 40, and 50 nM GST-prodomain of NGF was applied to each chip surface, and data was fitted to a 1:1 binding model using the standard BIAevaluation software.
This model is further supported by the previous data in the substitution analysis, where a stronger effect upon mutation was observed when using peptides containing only one of the binding motives, as compared to mutants spanning both motives. Accordingly, it was decided to “remove” an entire motif before substitution within the second motif and to be able to observe how that would influence binding of the ligand. A sortilin variant was produced containing quadruple substitutions (R163A, F165A, R166A, and […] F170A) in a similar procedure using HEK293 cells as applied for single residue mutants.
To determine ligand binding capacity, quatro protein was coupled in parallel to the wild-type sortilin on a new Biacore chip, and binding of GST-pro-NGF was measured in a manner similar to the analysis of single residue mutants (FIG. 21).

[1] = target: T4, proNGF binding to immobilized Sortilin (Homo sapiens, UniProt Q99523); test: Inhibition of proNGF binding to immobilized Sortilin (Biacore); settings: then coinjection, 51 fmol/mm^2 Sortilin (FIG. 6)
T4 construct: 51 fmol/mm^2 purified Sortilin extracellular domain; made in house; host or cells: Sortilin: stably transfected CHO cells; proNGF: E. coli
T4 sequence (Q99523 78-755 limits assumed): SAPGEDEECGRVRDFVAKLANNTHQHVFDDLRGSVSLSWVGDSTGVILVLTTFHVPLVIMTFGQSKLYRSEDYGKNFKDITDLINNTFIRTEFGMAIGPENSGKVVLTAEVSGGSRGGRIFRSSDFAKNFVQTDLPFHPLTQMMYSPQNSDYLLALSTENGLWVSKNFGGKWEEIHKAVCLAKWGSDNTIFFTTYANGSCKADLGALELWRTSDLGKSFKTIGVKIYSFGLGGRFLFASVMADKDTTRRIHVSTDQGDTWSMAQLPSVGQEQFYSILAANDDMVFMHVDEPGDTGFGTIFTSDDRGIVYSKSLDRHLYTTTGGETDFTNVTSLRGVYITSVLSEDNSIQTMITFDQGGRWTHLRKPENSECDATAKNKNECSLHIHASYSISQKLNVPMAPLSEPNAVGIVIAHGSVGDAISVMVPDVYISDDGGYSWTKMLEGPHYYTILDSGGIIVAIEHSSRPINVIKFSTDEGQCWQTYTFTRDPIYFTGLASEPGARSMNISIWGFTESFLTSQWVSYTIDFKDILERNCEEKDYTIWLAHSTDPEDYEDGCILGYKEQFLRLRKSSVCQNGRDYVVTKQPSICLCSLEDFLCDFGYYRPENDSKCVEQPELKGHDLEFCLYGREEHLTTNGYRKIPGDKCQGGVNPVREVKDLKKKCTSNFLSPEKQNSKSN

[2] = GST-pro-dom-NGF at 10-50 nM, 1:1 binding model

Molecule	Kd (GST-pro-dom-NGF; [2])	ka (GST-pro-dom-NGF; [2])	kd (GST-pro-dom-NGF; [2])	further results
FAKNFVQTD (listed as Homo Sapiens)	–	–	–	pro-dom-BDNF binding in SPOT analysis (pro-dom-BDNF): efficient binding; pro-dom-NGF binding in SPOT analysis (pro-dom-NGF): efficient binding
K172A: single residue mutant of his-tagged sortilin luminal domain; SEQ ID NO 55 (RGGRIFRSSDFAANF; not fully specified)	3.91 nM	1.01 × 10^5	3.46 × 10^−4	–
R163A: single residue mutant of his-tagged sortilin luminal domain; SEQ ID NO 51 (RGGAIFRSSDFAKNF; not fully specified)	2.7 nM	1.85 × 10^5	4.21 × 10^−4	–
F170A: single residue mutant of his-tagged sortilin luminal domain; SEQ ID NO 54 (RGGRIFRSSDAAKNF; not fully specified)	5.59 nM	1.30 × 10^5	5.91 × 10^−4	–
R166A: single residue mutant of his-tagged sortilin luminal domain; SEQ ID NO 53 (RGGRIFASSDFAKNF; not fully specified)	4.38 nM	6.48 × 10^4	2.85 × 10^−4	–
RIFRSSDF (listed as Homo Sapiens)	–	–	–	pro-dom-BDNF binding in SPOT analysis (pro-dom-BDNF): efficient binding; pro-dom-NGF binding in SPOT analysis (pro-dom-NGF): efficient binding
F165A: single residue mutant of his-tagged sortilin luminal domain; SEQ ID NO 52 (RGGRIARSSDFAKNF; not fully specified)	3.86 nM	1.10 × 10^5	4.22 × 10^−4	–
F174A: single residue mutant of his-tagged sortilin luminal domain; SEQ ID NO 56 (RGGRIFRSSDFAKNA; not fully specified)	4.27 nM	2.35 × 10^5	1.03 × 10^−3	–
RIFR: 4-mer sortilin peptide, SEQ ID NO:25 residues 7-10 (listed as Homo Sapiens)	–	–	–	pro-dom-BDNF binding in SPOT analysis (pro-dom-BDNF): binds very strongly; pro-dom-NGF binding in SPOT analysis (pro-dom-NGF): binds very strongly
quatro: sortilin variant with quadruple substitutions R163A, F165A, R166A, F170A; SEQ ID NO 57 (RGGAIAASSDAAKNF; not fully specified)	–	–	–	binding of GST-pro-dom-NGF compared with sortilin wt (GST-pro-dom-NGF; 50 nM GST-pro-dom-NGF, FIG. 22): severely affected; also recorded: strongly reduced affinity; KD (GST-pro-dom-NGF; [2]): no binding
R160A: single residue mutant of his-tagged sortilin luminal domain, control; SEQ ID NO 50 (AGGRIFRSSDFAKNF; not fully specified)	1.89 nM	1.47 × 10^5	2.27 × 10^−4	–
Sortilin propeptide: propeptide of the Sortilin receptor (QDRLDAPPPPAAPLPRWSGPIGVSWGLRAAAAGGAFPRGGRWRR)	–	–	–	inhibition of binding of 200 nM proNGF to immobilized Sortilin ([1]; 5 μM inhibitor prebound): ~65%
B1	–	–	–	inhibition of binding of 200 nM proNGF to immobilized Sortilin ([1]; 10 μM inhibitor prebound): ~65%
